FireProtDB (doi:10.1006/jmbi.2000.3776)

B1: Major outer membrane lipoprotein Lpp, P69776 (parent)
chain: MKATKLVLGAVILGSTLLAGCSSNAKIDQLSSDVQTLNAKVDQLSNDVNAMRSDVQAAKDDAARANQRLDNMATKYRK

Variants of: B1
Conditions: Escherichia coli (strain K12), pH 7, CD, structure 1EQ7, whole UniProt chain shown; for ddG of mutation (higher = less stable) / unfolding free energy: 4 °C, GdnHCl, PBS; for Tm / change of melting temperature, mutant - wild type (higher = more stable): Thermal, Sodium phosphate 50mM, NaCl 150mM

Row | Variant | ddG of mutation (higher = less stable) [kcal/mol] | unfolding free energy [kcal/mol] | Tm [°C] | change of melting temperature, mutant - wild type (higher = more stable) [°C]
1 | MKATKLVLGAVILGSTLLAGCSSNAKIDQLSSDVQTLNAKVDQLSNDVNAMRSDVQAAKDDAARANQRLDNMATKARK | 1.1 | 19.4 | 63 | -4
2 | MKATKLVLGAVILGSTLLAGCSANAKIDQLSSDVQTLNAKVDQLSNDVNAMRSDVQAAKDDAARANQRLDNMATKYRK | 0.8 | 19.7 | 64 | -3
